± gives the standard deviation of the averaged measurements.

The test system of data set [1] is Saccharomyces cerevisiae. The data set can be described thus: protein stability index of tFT-peptide fusion in wild type (PSI (0-1 scale)); higher = more stable (slower turnover). The following applies: genetic background: wild type.
Data set [2] concerns Saccharomyces cerevisiae. The data set can be described thus: protein stability index of tFT-peptide fusion (C-terminal peptide) (PSI (0-1 scale)); higher = more stable (slower turnover). How it is done: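 MPS profiling in S. cerevisiae of the tFT-X12 degron library: putative degron peptides plus stable controls, 12 aa, fused to the C-terminus of a sfGFP-mCherry timer. Cells are FACS-sorted into 8 mCherry/sfGFP bins and deep-sequenced. PSI runs from 0 (unstable) to 1 (stable). Backgrounds are wild type, das1Δ and doa10Δ at 30 °C, and wild type, das1Δ, cdc34-1 and cdc53-1 at 37 °C; 2-3 technical replicates each.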

The test system of data set [3] is Saccharomyces cerevisiae. The data set is described as above. The following applies: genetic background: wild type; temperature: 30 C.
Data set [4] has as its system Saccharomyces cerevisiae. The data set can be described thus: protein stability index of tFT-peptide fusion in deletion strain of DOA10 (PSI (0-1 scale)); higher = more stable (slower turnover). How it is done: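 MPS profiling in S. cerevisiae of two library types built from selected 12-aa C-degron peptides (IN1, IN2, LN1, LN3, VN2, R1-R5, W1-W3, Atg1 and Rpa12 C-termini): saturation mutagenesis libraries and C-terminal +1 capping libraries (13 aa). Each peptide is fused to the C-terminus of a sfGFP-mCherry timer, after a GGGS linker. Cells are FACS-sorted into 8 mCherry/sfGFP bins and sequenced. PSI runs from 0 (unstable) to 1 (stable), measured once in wild type and in the das1Δ or doa10Δ background.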
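Wherever protein stability index of tFT-peptide fusion (C-terminal peptide) is given: PSI is a weighted mean of sequencing reads over stability bins, variants kept only with over 10 reads, mCherry proximal and sfGFP distal, peptide attached via GGGS linker.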
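Wherever protein stability index of tFT-peptide fusion in deletion strain of DOA10 is given: PSI per variant is the weighted mean of its sequencing read distribution over the sorted stability bins, counting only variants with over 10 reads summed across bins.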
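Wherever protein stability index of tFT-peptide fusion in wild type is given: PSI derived as read-weighted mean over the 8 sorting bins, only variants exceeding 10 total reads kept, mCherry placed adjacent to the peptide and sfGFP distal.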

With RVTRLDAIYFRI, the protein stability index with Saccharomyces cerevisiae [1] was 0.328; with Saccharomyces cerevisiae [2] (genetic background: cdc34-1, temperature: 37 C), 0.265 ± 0.06; in the data set on Saccharomyces cerevisiae [2] (genetic background: cdc53-1, temperature: 37 C), 0.198 ± 0.0072; in the data set with Saccharomyces cerevisiae [2] (genetic background: das1 deletion, temperature: 30 C) it was 0.341 ± 0.031; in the data set on Saccharomyces cerevisiae [2] (genetic background: das1 deletion, temperature: 37 C), 0.351 ± 0.012; in the data set with Saccharomyces cerevisiae [2] (genetic background: doa10 deletion, temperature: 30 C), 0.717 ± 0.03. Moreover, the protein stability index in the data set on Saccharomyces cerevisiae [2] (genetic background: wild type, temperature: 30 C) stood at 0.312 ± 0.014; in the data set on Saccharomyces cerevisiae [2] (genetic background: wild type, temperature: 37 C), 0.323 ± 0.0054; in the data set on Saccharomyces cerevisiae [3], 0.381 ± 0.019; in the data set with Saccharomyces cerevisiae [4], 0.681.

Turning to RWLRVLLPLYFR, the protein stability index in the data set with Saccharomyces cerevisiae [1] turned out to be 0.402; in the data set with Saccharomyces cerevisiae [4], 0.682.

As for WLYMCSVGCWFR, the protein stability index amounted to 0.302 with Saccharomyces cerevisiae [1] and 0.633 in the data set on Saccharomyces cerevisiae [4].

The values are drawn from the supplement of paper PMC10724198.
